Data reported in publication PMC3475689, “Leishmania donovani Argininosuccinate Synthase Is an Active Enzyme Associated with Parasite Pathogenesis” (PLoS Neglected Tropical Diseases, 2012).

T1: LdPEX5, PTS1 receptor protein peroxin 5 of Leishmania donovani, recombinant (Leishmania donovani, UniProt A0A3S7X906 1-625)
T1 construct: Peroxin 5 (LdPEX5), the PTS1 receptor of Leishmania donovani; construct not described here; also called receptor peroxin 5; glycosomal PTS1 targeting receptor protein
T1 sequence (looked up): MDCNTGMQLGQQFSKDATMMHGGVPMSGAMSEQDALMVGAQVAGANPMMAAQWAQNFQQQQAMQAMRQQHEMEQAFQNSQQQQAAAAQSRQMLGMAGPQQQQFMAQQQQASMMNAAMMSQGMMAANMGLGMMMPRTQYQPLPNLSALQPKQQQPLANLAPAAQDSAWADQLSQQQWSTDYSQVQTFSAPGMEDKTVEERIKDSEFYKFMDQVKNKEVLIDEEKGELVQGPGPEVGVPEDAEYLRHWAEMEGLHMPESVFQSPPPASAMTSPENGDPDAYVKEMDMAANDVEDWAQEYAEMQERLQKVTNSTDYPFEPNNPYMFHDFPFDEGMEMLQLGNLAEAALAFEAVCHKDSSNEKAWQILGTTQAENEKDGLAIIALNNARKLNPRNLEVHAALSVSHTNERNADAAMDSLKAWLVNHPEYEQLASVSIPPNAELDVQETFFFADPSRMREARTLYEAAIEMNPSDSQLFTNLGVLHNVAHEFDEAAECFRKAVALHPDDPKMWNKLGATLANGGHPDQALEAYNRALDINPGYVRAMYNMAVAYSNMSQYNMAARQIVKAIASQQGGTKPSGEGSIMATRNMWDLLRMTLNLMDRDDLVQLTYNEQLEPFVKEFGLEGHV

B1: LdIMPDH, glycosomal PTS1 protein inosine monophosphate dehydrogenase of Leishmania donovani, recombinant (enzyme, UniProt P21620 1-514, looked up)
chain: MATNNANYRIKTIKDGCTAEELFRGDGLTYNDFIILPGFIDFGAADVNISGQFTKRIRLHIPIVSSPMDTITENEMAKTMALMGGVGVLHNNCTVERQVEMVKSVKAYRNGFISKPKSVPPNTPISNIIRIKEEKGISGILVTENGDPHGKLLGIVCTKDIDYVKNKDTPVSAVMTRREKMTVERAPIQLEEAMDVLNRSRYGYLPIVNENDEVVNLCSRRDAVRARDYPHSTLDKSGRLICAAATSTRPEDKRRVAALADVGVDVLVLDSSQGNTIYQIAFIKWVKSTYPHLEVVAGNVVTQDQAKNLIDAGADGIRIGMGSGSICITQEVLACGRPQGTAVYKVAQYCASRGVPCTADGGLRQVGDICKALAIGANCAMLGGMLSGTTETPGEYFFKGGVRLKVYRGMGSLEAMSQGKESGKRYLSENEAVQVAQGVSGNVVDKGSAAKLIAYVSKGLQQSAQDIGEISFDAIREKMYAGQVLFSRRSPTAQGEGGVHSLHSYEKKLFAAKM
notes: Inosine monophosphate dehydrogenase (LdIMPDH) of Leishmania donovani, with the C-terminal tripeptide PTS1 signal Ala-Lys-Met; construct not described here
B2: V5His-LdASS^WT, recombinant Leishmania donovani argininosuccinate synthase with N-terminal V5 epitope and hexahistidine tags (enzyme, UniProt H9BG20 1-418, looked up)
chain: MPATATEVVCGKKPRVVLAYSGGLDTSVIIPWLKENYDYEVIACCANVGQGAGEIDGLEEKAKKSGASKLYLLDLREEYVTDYIFPTLKAGATYEGKYMLGTSHARPLIAKHLVEVAHKEGAVAICHGATGKGNDQVRFELAVMALDPSLKCVAPWREWNIKSREDAIDYAEAHGVPVPCTKSDLYSRDRNLWHISHEGMDLEDPANEPAYARLLRLCNTVEKAPDEAEYVAVQFEKGIPVAVNGRKMSSVELVEELNALGGKHAIGIEDIVEDRLVGMKSRGVYETPAGTILYKALDMLESLCLDRDTQSFKRQSAVRFSELVYDGKWFTPLRESMSAMFDQMAETVTGEATLKLYKGNLVPAGAQSPYSLYNKNIASFGDSKHLYNHHDAEGFIRLFGLPLRVRSMMKAKEMPSSL
notes: Argininosuccinate synthase (LdASS) of Leishmania donovani strain Ld1S2D; predicted protein identical to L. infantum LinJ.23.0300 and L. donovani BPK282A1 CBZ34226.1; C-terminal Ser-Ser-Leu (PTS1) left free; Made from the pCRT7 plasmid with primers F3/R3 and ligated into pEXP-5-NT/TOPO; also called rLdASS WT, N-terminal tagged; pEXP5-V5HisLdASS^WT; source: E. coli BL21 (DE3) pLysS, purified …
B3: LdPEX5, PTS1 receptor protein peroxin 5 of Leishmania donovani, recombinant (receptor)
chain: MDCNTGMQLGQQFSKDATMMHGGVPMSGAMSEQDALMVGAQVAGANPMMAAQWAQNFQQQQAMQAMRQQHEMEQAFQNSQQQQAAAAQSRQMLGMAGPQQQQFMAQQQQASMMNAAMMSQGMMAANMGLGMMMPRTQYQPLPNLSALQPKQQQPLANLAPAAQDSAWADQLSQQQWSTDYSQVQTFSAPGMEDKTVEERIKDSEFYKFMDQVKNKEVLIDEEKGELVQGPGPEVGVPEDAEYLRHWAEMEGLHMPESVFQSPPPASAMTSPENGDPDAYVKEMDMAANDVEDWAQEYAEMQERLQKVTNSTDYPFEPNNPYMFHDFPFDEGMEMLQLGNLAEAALAFEAVCHKDSSNEKAWQILGTTQAENEKDGLAIIALNNARKLNPRNLEVHAALSVSHTNERNADAAMDSLKAWLVNHPEYEQLASVSIPPNAELDVQETFFFADPSRMREARTLYEAAIEMNPSDSQLFTNLGVLHNVAHEFDEAAECFRKAVALHPDDPKMWNKLGATLANGGHPDQALEAYNRALDINPGYVRAMYNMAVAYSNMSQYNMAARQIVKAIASQQGGTKPSGEGSIMATRNMWDLLRMTLNLMDRDDLVQLTYNEQLEPFVKEFGLEGHV

How the values were obtained:
[1] = target: T2, LdASS (V5His-LdASS^WT) (Leishmania donovani, UniProt H9BG20); assay: malachite green Pi release, pyrophosphatase-coupled; assay type: biochemical; conditions: read-out: % inhibition at 1 mM
T2 construct: full length (419 residues predicted, 46 kDa), N-terminal V5 and His6 tags kept; overexpressed in L. donovani amastigotes, Ni-NTA pull-down, assayed on beads; tetramer inferred from other ASS; CBZ34226.1 (BPK282A1) stated identical

[2] = target: T1, LdPEX5, PTS1 receptor protein peroxin 5 …; assay: ELISA; plates coated with 100 µL of 10 µg/mL LdIMPDH or LdASS variant in PBS, 4°C, 16 h; blocked with 2% BSA; purified LdPEX5 at 0.01-400 nM; bound LdPEX5 detected with anti-LdPEX5 polyclonal antisera; apparent Kd; conditions: both partners purified
[3] = target: V5His-LdASS^G128S, recombinant Leishmania donovani argininosuccinate synthase G128S with N-terminal V5 epitope and hexahistidine tags (Leishmania donovani); assay: as above

Molecule	Kd [2]	other results
CC(N)(CC(=O)O)C(=O)O (racemic) [MDLA, methyl-D-L-Aspartic acid]	–	inhibition at 1000 µM [1]: ~60%
B1	~5 nM	–
B2	~5 nM	–
B3	–	Kd [3]: 5 nM
